# Data as given in the nanobody polyreactivity screen of Harvey et al. (2022).
# Experiment: yeast display, Sf9 membrane polyspecificity reagent, FACS + sequencing; frameworks hold sequencing errors
# In short: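 Sorting gates, low and high (top ~1%), were placed on anti-HA fluorescence to track expression and on streptavidin fluorescence to track reagent binding. A clone's polyreactivity label is taken from the gate it came out of. The reagent was 10% biotinylated, detergent-solubilized Sf9 membrane, applied for 1 hour at 4 °C to galactose-induced yeast display cells.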
row,Sequence,polyreactivity (PSR sort gate)
1,QVQLVESGGGLVQAGGSLRLSCAASGRTFLYYTMGWYRQAPGKERELVAAITSGTSTNYADSVKGRFTISRDNAKNTVYLQMNSLKPEDTAVYYCNKRAARSLNGYPLYGYYYWGQGTQVTVSS,low polyreactivity
2,QVQLVESGGGLVQAGGSLRLSCAASGRTFNGNTMGWYRQAPGKERELVAAISRRGGSTYYADSVKGRFTISRDTAKNTVYLQMNSLKPEVTAVYYCATHSTFGYDYWGQGTQVTVSS,high polyreactivity
3,QVQLVESGGGLVQAGGSLRLSCAASGRTFNGYAMGWYRQAPGKERELVASISRDGSTNYADSVKGRFTISRDNAKNTVYLQMNSLKPEDTAVYYCAADIWYYRYPIYYYSYDYWGQGTQVTVSS,low polyreactivity
4,QVQLVESGGGLVQAGGSLRLSCAASGRTFNHNPMRWYRQAPGKERELVAAISYSGGGTYYADSVKGRFTFSRDNAKNSVYLQMNSLKPEDTAVYFCAAYPVRGAYGYWGQGTQVTVSS,low polyreactivity
5,QVQLVESGGGLVQAGGSLRLSCAASGRTFNINAMGWYRPAPGKERELVASISWGGGRTYSADSVKGRFTISRDNAKNTVYLQKNSLKPEDPAVYYCAADYAGNKGVPYYYKYNYWGQGTQVTVSS,high polyreactivity
6,QVQLVESGGGLVQAGGSLRLSCAASGRTFNIYAMGWYRQAPGKERELVAAITFTGGNTYYADSVKGRFTISRDNAKNTVYLQMNSLKPEDTAVYYCNKRLKWRSYDYWGQGTQVTVSS,low polyreactivity
7,QVQLVESGGGLVQAGGSLRLSCAASGRTFNRNAMGWYRQAPRKERELVAAISRGGTTSYADSVKGRFTISRDNAKNTVYLQMNSLQPEDTAVYYCAAEPYIQWVYYRGNGRRYGYWGQGTQVTVSS,high polyreactivity
8,QVQLVESGGGLVQAGGSLRLSCAASGRTFNRYAMGWYRQAPGKEREFVASITRSGGSTYYADSVKGRFTISRDNAKNTVYLQMNSLKPEDTAVYYCAAQLRYKYDYWGQGTQVTVSS,high polyreactivity
9,QVQLVESGGGLVQAGGSLRLSCAASGRTFNSHVMRWYRQAPGKERELVAAISSRGGGTYYADSVKGRFTISRDNAKNTVYLQMNSLNPEDTAVYYCITVVSRSYRDGPPDPYDSWGQGTQVTVSS,high polyreactivity
10,QVQLVESGGGLVQAGGSLRLSCAASGRTFNSYAMGWYRQAPGKERELVASISSGGSTYYADSVKGRFTLSRDNAKHTDYLQMNSLKPEDTAVYYCAAKSVAYYSYFRRDYWGQGTQVTVSS,low polyreactivity
11,QVQLVESGGGLVQAGGSLRLSCAASGRTFNVYAMGWYRQAPGKETELVAVITNGGSTNYADSVKGRFTISRDNAKNTVYFQMNSLKPEDTAVYYCAAREDLYLYYNGQRVQYDYCGQGTQVTVSS,low polyreactivity
12,QVQLVESGGGLVQAGGSLRLSCAASGRTFNWNAMGWYRQAPGKESEFVADISGRGGSTYYADSVKGRFTISRDNAKNTVYLQMNSLKPEETAVYYCAARPRFLRASVEFDYWGQGTQVTVSS,high polyreactivity
13,QVQLVESGGGLVQAGGSLRLSCAASGRTFNWYAMGWYRQTPGKERELVAGITRIGTTTYYADSVKGRFTISRDNAKITVYLQMNSLKPEDTAVYYCASDQRKLGADFDSWGQGTQVTVSS,high polyreactivity
14,QVQLVESGGGLVQAGGSLRLSCAASGRTFNYYAMGWYRQAPGKERELVAAISWGGGRTYYADSVKGRFTISRDNAKNTVYFQMNSLKPEDTAVFDCAARYLQLGLAYYYWGQGTQVTVSS,high polyreactivity
15,QVQLVESGGGLVQAGGSLRLSCAASGRTFNYYAMGWYRQAPGKERELVAAISWSGTPTYYADSVKGRFTISRDNAKNTVYLQMNSLKPEDTAVYYCAAYLVSYPRGNYIRYDYWGQGTQVTVSS,low polyreactivity
16,QVQLVESGGGLVQAGGSLRLSCAASGRTFPDNAMGWYRQEPGKERELVAVINWGGTSTYYADSVKGRFTISRDNAKNTFYLQMNSLKPEDTAVYYCAARARYPRVGYNYWGQGTQVTVSS,high polyreactivity
17,QVQLVESGGGLVQAGGSLRLSCAASGRTFPFYAMGWYRQPPAKERELVAVITWRGSNTYADSVKGRFTISRDNAKNTVYLQMNSLKPEVTAVYYCAADAWRSYGYRAYDYWGQVTQVTVSS,low polyreactivity
18,QVQLVESGGGLVQAGGSLRLSCAASGRTFPGNAMGWYRQAPGKERELVAAISSRGGSTYYADSVKGRFTISRDNAKYTVYFQMNSLKPEDTALYYCARRYLPYGGYYYWGQGTQVTVSS,high polyreactivity
19,QVQLVESGGGLVQAGGSLRLSCAASGRTFPGNAMGWYRQAPGKERELVATISSGGTTNYADSVKGRFTISRDNAKTTVYLQMNSLKPEDTAVYYCATDTYHHKADYEYWGKGTQVTVSS,low polyreactivity
20,QVQLVESGGGLVQAGGSLRLSCAASGRTFPGNAMGWYRQAPGKERELVATISSGGTTYYADSVKGRFTISRDNAKNTVYLQMNSLKPEDTAVYYCATDTYHHKADYEYWGQGTQVSVSS,low polyreactivity
21,QVQLVESGGGLVQAGGSLRLSCAASGRTFPGYAMGWYRQAPGKERELVAAISSSGGSTYYADSVKGRFTISRDNAKNTVYLQMNSLKPEDTAVYYCNAAYRGRLYSWRYGYDYWGQGTQVTVSS,high polyreactivity
22,QVQLVESGGGLVQAGGSLRLSCAASGRTFPINTMGWYRQAPGKEREFVAAITLGGRTYYADSVKGRFTISRDNAKNTVYLQMNSLKPEDTAVYYCNARTYVRRPLGYWGQGTQVTVSS,high polyreactivity

row,Sequence,polyreactivity (PSR sort gate)
1,QVQLVESGGGLVQAGGSLRLSCAASGRTFPKYAMGWYRQATGKERELVAAISSSGGNTYYADSVKGRFTISRDKAKTTVYLQMNSLTPEDTAVYYCAARLPRGAYYYWGQGTQLTVSS,high polyreactivity
2,QVQLVESGGGLVQAGGSLRLSCAASGRTFPNVMGWYRQAPGKERELVAAISSSVGSTSYADSVKGRFTISRDNAKNTVYLQMNSLKPEDTAVYYCAARYYYRDWVGIISTYYYWGQGTQVTVSS,high polyreactivity
3,QVQLVESGGGLVQAGGSLRLSCAASGRTFPPYAMGWYRQAPGKERELVAAISRRAGTTYYADSVKGRFTISRDNAKNTVYLQMNSLKPEDTAVYYCAALTESSSYGYWGQGTQVTVSS,low polyreactivity
4,QVQLVESGGGLVQAGGSLRLSCAASGRTFPPYAMGWYRQAPGKERELVAAISSDGSTYADSVKGRFTISRDNAKNTVYLQMNSLKPEDTAVYYCAVDYTYSYRKHFGHILYSWGQGTQVTVSS,low polyreactivity
5,QVQLVESGGGLVQAGGSLRLSCAASGRTFPRYAMGWYRQAPGKERELVAAISGTGGSTYYADSVKGRFTISRDNAKNTVYLQMNSLKPEDTAVYYCAAAFRDGFTRRYGYWGQGTQVTVSS,high polyreactivity
6,QVQLVESGGGLVQAGGSLRLSCAASGRTFPRYAMGWYRQAPGKERELVAAISVRAGITYYADSVKGRFTISRDNAKNTVYLQMNSLKPEDTAVYYCAKSVRYPASDYWGQGTQVTVSS,low polyreactivity
7,QVQLVESGGGLVQAGGSLRLSCAASGRTFPSYAMGWYRQAAGKERELVAAITVSGGNTYYADSVKGRFTISRDNAKNTVYLQMNSLKPEDTAVYYCNTASYVSWYVHYYYWGQGTQVTVSS,low polyreactivity
8,QVQLVESGGGLVQAGGSLRLSCAASGRTFPSYVMGWYRQAPGKERELVAAINNGVSTNYADSVKGRYTISRDNAKNTVYLQMNSLNPEDTADYYCAAEVVAQMNYCGQGTQVTVSS,low polyreactivity
9,QVQLVESGGGLVQAGGSLRLSCAASGRTFPTNMGWYRQAPGKERELVATITGGGGSTIYADSVKGRFTISRDNAKNTVYLQMNSLKPEDTAVYYCAKTLSPEGVPYDYWGQGTQVTVSS,low polyreactivity
10,QVQLVESGGGLVQAGGSLRLSCAASGRTFPTYAMGWYRQAPGKERELVATISYNGGRTYYADSVKGRFTISRDNAKNTVYLQMNSLKPEDTAVYDCNAVVYVVGDFDYWGQGTQVTVSS,high polyreactivity
11,QVQLVESGGGLVQAGGSLRLSCAASGRTFPVNGMGWYRQAPGKERELVAAITGGGSTNYADSVKGRFTISRDNAKNTVYLQMNSLKPEDTAVYYCAAGSYSRYLYSLYFDFDYWGQGTQVTVSS,low polyreactivity
12,QVQLVESGGGLVQAGGSLRLSCAASGRTFPVYAMGWYRQAPGKEREFVAAISYRTGSTYYADSVKGRFTISRDHAKNTVYLQMNSLKPEDTAVYYCAARVSWYYTFYSWGQGTQVTVSS,high polyreactivity
13,QVQLVESGGGLVQAGGSLRLSCAASGRTFPYNAMGWYRQAPGKERELVAAITSSGSSTYYADSVKGRFTISRDNAKNTVYLQMNSLKPEDTAVYYCAADSYLIVGSSLVWQGYYYWGQGTQVTVSS,low polyreactivity
14,QVQLVESGGGLVQAGGSLRLSCAASGRTFPYNAMGWYRQAPGNERELVAGISSGGTTTYADSVKGRFTISRDNAKNTVYLQMNSLKPEVTAVYYCAATVIIFDHSRPGWDDYDYWGQGTQVTVSS,low polyreactivity
15,QVQLVESGGGLVQAGGSLRLSCAASGRTFPYNFMGWYRQAPGKERELVAGITGSGDSTFYADSVKGRFTISRDNAKNTVYLQMNSLKPEDTAVYYCAARYRTLNDGYNRNYWGQGTQVTVSS,low polyreactivity
16,QVQLVESGGGLVQAGGSLRLSCAASGRTFPYYAMGWYRQAPGKERELVAAISRRGASTYYADSVKGRFTISRDNAKNTVYLQMNSLKPEDTAVYYCNAVYRGYYSGELDYWGQGTQVTVSS,high polyreactivity
17,QVQLVESGGGLVQAGGSLRLSCAASGRTFPYYAMGWYRQAPGKERELVAVISSADSTNYADSVKGRFTISRDNAKNTVYLQMNSLKPEDTAVYYCAADAVYYGDDYWGQCTQVTVSS,low polyreactivity
18,QVQLVESGGGLVQAGGSLRLSCAASGRTFPYYAMGWYRQAPGKERELVAVITSGASTYYADSVKGRFTISRDNAKNTVYLQMNSLKPEDTAVYYCNARYSWKYDYWGQGTQVTVSS,high polyreactivity
19,QVQLVESGGGLVQAGGSLRLSCAASGRTFPYYAMGWYRQATGKERELVAAITTNDGDTYYADSVKGRFTISRDNAKNTVYLQMNSLKPEDTAVYYCSADSGSTSEYEYWGQGTQVTVSS,low polyreactivity
20,QVQLVESGGGLVQAGGSLRLSCAASGRTFQGNTMGWYRQAPGKEREFVAAMSSRGGSTYYADSVKGRFTISRDNAKNTVYLQMNRLKPEDTAVYYCDARFSHGYDYWGQGTQVTVSS,high polyreactivity
21,QVQLVESGGGLVQAGGSLRLSCAASGRTFQGNTMGWYRQAPGKERELVAAITWRGTTTYYADSVKGRFTISRDNAKNTVYVQMNSLKPEDTAVYYCAAGHALHSGDEFGYWGQGTQVTVSS,low polyreactivity
